The values that follow come from patent publication US7976845.

The target of assay [1] is recombinant gB-CMV polyepitope protein (Human cytomegalovirus (AD169)). The assay is described as follows: direct ELISA; plate coated with concentrated recombinant protein diluted 1:400; 2F12 at 1:8000; HRP anti-mouse Ig, TMB. In general terms: An ELISA detects its analyte on a solid surface through an enzyme-linked reagent.
Assay [2] has the same target. Description: direct ELISA; plate coated with concentrated recombinant protein diluted 1:25600; 2F12 at 1:8000; HRP anti-mouse Ig, TMB.
Assay [3] shares this target. The assay is described as follows: direct ELISA; plate coated with concentrated recombinant protein diluted 1:12800; 2F12 at 1:8000; HRP anti-mouse Ig, TMB.
Assay [4] shares this target. Description: direct ELISA; plate coated with concentrated recombinant protein diluted 1:1600; 2F12 at 1:8000; HRP anti-mouse Ig, TMB.
For assay [5] the target is unchanged. The assay is described as follows: direct ELISA; plate coated with concentrated recombinant protein diluted 1:102400; 2F12 at 1:8000; HRP anti-mouse Ig, TMB.
Assay [6] has the same target. Description: direct ELISA; plate coated with concentrated recombinant protein diluted 1:51200; 2F12 at 1:8000; HRP anti-mouse Ig, TMB.
Assay [7] shares this target. Description: direct ELISA; plate coated with concentrated recombinant protein diluted 1:200; 2F12 at 1:8000; HRP anti-mouse Ig, TMB.
The target is the same in assay [8]. Description: direct ELISA; plate coated with concentrated recombinant protein diluted 1:800; 2F12 at 1:8000; HRP anti-mouse Ig, TMB.
Assay [9] has the same target. Description: direct ELISA; plate coated with concentrated recombinant protein diluted 1:3200; 2F12 at 1:8000; HRP anti-mouse Ig, TMB.
Assay [10] shares this target. Description: direct ELISA; plate coated with concentrated recombinant protein diluted 1:6400; 2F12 at 1:8000; HRP anti-mouse Ig, TMB.
The target is the same in assay [11]. Description: direct ELISA; plate coated with concentrated recombinant protein diluted 1:50; 2F12 at 1:8000; HRP anti-mouse Ig, TMB.
Assay [12] has the same target. The assay is described as follows: direct ELISA; plate coated with concentrated recombinant protein diluted 1:100; 2F12 at 1:8000; HRP anti-mouse Ig, TMB.

For “anti-gB monoclonal antibody 2F12 (Abcam, UK)”, the OD in assay [1] came to 0.59 OD; in assay [2], 0.277 OD; in [3], 0.249 OD; in [4] it was 0.379 OD; in assay [5], 0.144 OD; in assay [6], 0.19 OD. Further, the OD in [7] amounted to 0.408 OD; in [8], 0.486 OD; in [9] it was 0.4 OD; in assay [10] it was 0.317 OD; in assay [11], 0.69 OD; in [12] it was 0.548 OD.
